Data from patent US20050277575A1 (published 2005).

Molecular target: T1, S100A4 protein (recombinant human, GST tag removed) (human)
T1 chain: YVERW
Test: cell-based or functional assay

Binder: Ac-AGLREVYGASLASYMERW-NH2 [peptide SEQ ID NO 6, Ac-AGLREVYGASLASYMERW-amide]
- IC50 for inhibition of the accelerating effect of S100A4 on t-PA-dependent conversion of plasminogen to plasmin: 6 µM
